Experimental findings from US20040213780, “Methods and compositions for treating polyglutamine expansion-associated disease” (published 2004) are described below.

The target of the data set is Sp1 (UniProt P08047 P08047:2-785). The data set can be described thus: EMSA; 5 mM DTT, 1 ug/ml poly(dI-dC); binding reduced 20% by GST-huntingtin Q20 and 70% by Q51; competed by 50-fold unlabelled probe. The settings on record: tags: purified Sp1, Promega; label: labeled (autoradiography). As to the method:
Chem. 273:26218, 1998) except that 5 mM DTT and 1 μg/ml poly(dI-dC) were used. GST-huntingtin fusions (0.2 μg/ul) were a gift of E. Wanker and were purified as described (J. S. Steffan et al., Nature 413:739, 2001). An approximate 1:1 ratio of purified proteins was used. Coomassie blue staining and Western blotting were used to examine the purified proteins.
Binding of Sp1 to a labeled consensus Sp1 site is shown in lane 1, and competition with a 50-fold molar excess of unlabelled probe is shown in lane 2 (plus sign). Incubation of Sp1 in the presence of GST-huntingtin with 20 glutamines (Qs) led to a 20% reduction in Sp1 binding (lane 3), whereas huntingtin with 51 Qs inhibited Sp1 binding by 70% (lane 4). The Sp1/DNA complex was identified with anti-Sp1 and is indicated by an arrow in all panels. […] Primary striatal cells were transfected with wild-type (HttQ 17) or mutant (HttQ75) huntingtin. EMSA was performed with a labeled D2 promoter fragment containing a Sp1 binding site. […] In competition experiments, a 100-fold molar excess of double-stranded nonradioactive oligonucleotide was used (lanes 2 and 4). […] EMSA was performed with nuclear extracts isolated from presymptomatic grade 1 and grade 4 HD brain tissue as described above herein. […] Competition experiments were performed as in (FIG. 2B) (lane 2). […] EMSA was performed as in FIG. 2C. […]

Sequence of Sp1 (P08047 2-785, one chain of several): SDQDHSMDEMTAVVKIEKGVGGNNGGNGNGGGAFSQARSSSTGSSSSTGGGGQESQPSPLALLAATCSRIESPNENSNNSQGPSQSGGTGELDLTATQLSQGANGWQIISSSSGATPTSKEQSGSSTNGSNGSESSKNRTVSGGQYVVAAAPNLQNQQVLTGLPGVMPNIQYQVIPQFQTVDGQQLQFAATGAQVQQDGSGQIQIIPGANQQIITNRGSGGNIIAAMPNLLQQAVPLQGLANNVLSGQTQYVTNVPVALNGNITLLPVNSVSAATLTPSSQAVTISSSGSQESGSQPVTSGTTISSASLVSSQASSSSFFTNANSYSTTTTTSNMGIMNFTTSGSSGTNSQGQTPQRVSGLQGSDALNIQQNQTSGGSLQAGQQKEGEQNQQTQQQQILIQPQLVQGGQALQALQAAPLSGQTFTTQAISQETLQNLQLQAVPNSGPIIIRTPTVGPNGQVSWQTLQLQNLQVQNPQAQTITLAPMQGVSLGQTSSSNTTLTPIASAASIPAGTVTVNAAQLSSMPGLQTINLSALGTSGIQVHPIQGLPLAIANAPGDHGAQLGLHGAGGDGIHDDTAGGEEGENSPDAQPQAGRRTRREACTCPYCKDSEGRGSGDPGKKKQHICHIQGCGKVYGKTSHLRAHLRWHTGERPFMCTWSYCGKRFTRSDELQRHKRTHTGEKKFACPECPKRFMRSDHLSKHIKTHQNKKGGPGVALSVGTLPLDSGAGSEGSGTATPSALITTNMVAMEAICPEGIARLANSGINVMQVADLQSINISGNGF

B1: Sp1 consensus site probe (dsDNA)
DNA 1: ATTCGATCGGGGCGGGGCGAGC
DNA 2: GCTCGCCCCGCCCCGATCGAAT
Turning to B1, the binding result is given as “binds”.
